For orientation: Kd means a measure of binding affinity in units of concentration. A lower Kd goes with tighter binding.

This note sets out measurements from PMC10912200 (Nature Communications, 2024).

Common to all, as to conditions: both partners purified
The target of experiment [1] is T1, TcsH^2210-2618, His-tagged (Paeniclostridium sordellii, UniProt M9ZTT7 2210-2618).
T1 construct: not shown: His, C-terminal, kept
T1 sequence: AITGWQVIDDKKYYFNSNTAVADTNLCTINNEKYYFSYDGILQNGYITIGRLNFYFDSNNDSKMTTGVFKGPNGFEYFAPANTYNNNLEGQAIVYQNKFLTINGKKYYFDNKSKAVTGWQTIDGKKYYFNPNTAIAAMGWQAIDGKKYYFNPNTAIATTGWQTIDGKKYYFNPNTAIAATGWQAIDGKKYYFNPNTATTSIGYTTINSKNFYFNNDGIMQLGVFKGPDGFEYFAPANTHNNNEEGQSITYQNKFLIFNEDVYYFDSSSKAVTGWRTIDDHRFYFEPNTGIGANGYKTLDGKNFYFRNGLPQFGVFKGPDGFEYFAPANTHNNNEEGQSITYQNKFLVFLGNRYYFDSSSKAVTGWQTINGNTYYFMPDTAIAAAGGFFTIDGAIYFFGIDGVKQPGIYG
Briefly: pull-down.

The next experiment addresses T2, MBP-fused TcsH^2236-2618 (Paeniclostridium sordellii, UniProt M9ZTT7 2236-2618).
T2 construct: source: E. coli BL21(DE3), purified (Amylose resin, SEC)
T2 sequence: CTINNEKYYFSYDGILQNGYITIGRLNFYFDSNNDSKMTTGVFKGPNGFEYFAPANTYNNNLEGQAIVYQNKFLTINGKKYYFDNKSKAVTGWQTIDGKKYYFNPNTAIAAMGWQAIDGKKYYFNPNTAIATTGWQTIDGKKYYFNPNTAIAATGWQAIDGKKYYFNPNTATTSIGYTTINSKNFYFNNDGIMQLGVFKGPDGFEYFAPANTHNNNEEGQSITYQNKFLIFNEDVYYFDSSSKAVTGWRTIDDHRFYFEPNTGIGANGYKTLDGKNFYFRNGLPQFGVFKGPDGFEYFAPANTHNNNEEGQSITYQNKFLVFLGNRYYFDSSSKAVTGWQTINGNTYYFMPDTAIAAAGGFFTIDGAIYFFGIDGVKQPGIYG
As to the kind of experiment: BLI.

Experiment [2] has as its target T1, TcsH^2210-2618, His-tagged. As to the kind of experiment: BLI. Background: BLI is a label-free optical method that tracks binding on a fibre tip over time.

B1: Fc-His-TMPRSS2^ECD [change] (Fc fusion)
chain: WKFMGSKCSNSGIECDSSGTCINPSNWCDGVSHCPGGEDENRCVRLYGPNFILQVYSSQRKSWHPVCQDDWNENYGRAACRDMGYKNNFYSSQGIVDDSGSTSFMKLNTSAGNVDIYKKLYHSDACSSKAVVSLRCIACGVNLNSSRQSQIVGGESALPGAWPWQVSLHVQNVHVCGGSIITPEWIVTAAHCVEKPLNNPWHWTAFAGILRQSFMFYGAGYQVEKVISHPNYDSKTKNNDIALMKLQKPLTFNDLVKPVCLPNPGMMLQPEQLCWISGWGATEEKGKTSEVLNAAKVLLIETQRCNSRYVYANLITPAMICAGFLQGNVDSCQGDSGGPLVTSKNNIWWLIGDTSWGSGCAKAYRPGVYGNVMVFTDWIYRQMRADG
notes: source: Expi293F, transfected, purified from the supernatant (TALON resin, SEC)
On to B1, for which the binding result in experiment [1] is “binds”.

B2: Fc-His-TMPRSS2^ECD [change] (Fc fusion)
chain: WKFMGSKCSNSGIECDSSGTCINPSNWCDGVSHCPGGEDENRCVRLYGPNFILQVYSSQRKSWHPVCQDDWNENYGRAACRDMGYKNNFYSSQGIVDDSGSTSFMKLNTSAGNVDIYKKLYHSDACSSKAVVSLRCIACGVNLNSSRQSQIVGGESALPGAWPWQVSLHRQNVHVCGGSIITPEWIVTAAHCVEKPLNNPWHWTAFAGILRQSFMFYGAGYQVEKVISHPNYDSKTKNNDIALMKLQKPLTFNDLVKPVCLPNPGMMLQPEQLCWISGWGATEEKGKTSEVLNAAKVLLIETQRCNSRYVYDNLITPAMICAGFLQGNVDSCQGDSGGPLVTSKNNIWWLIGDTSWGSGCAKAYRPGVYGNVMVFTDWIYRQMRADG
notes: as for B1
For B2, in experiment [1], the binding result is given as “binds”.

B3: Fc-His-TMPRSS2^ECD (Fc fusion)
chain: WKFMGSKCSNSGIECDSSGTCINPSNWCDGVSHCPGGEDENRCVRLYGPNFILQVYSSQRKSWHPVCQDDWNENYGRAACRDMGYKNNFYSSQGIVDDSGSTSFMKLNTSAGNVDIYKKLYHSDACSSKAVVSLRCIACGVNLNSSRQSQIVGGESALPGAWPWQVSLHVQNVHVCGGSIITPEWIVTAAHCVEKPLNNPWHWTAFAGILRQSFMFYGAGYQVEKVISHPNYDSKTKNNDIALMKLQKPLTFNDLVKPVCLPNPGMMLQPEQLCWISGWGATEEKGKTSEVLNAAKVLLIETQRCNSRYVYDNLITPAMICAGFLQGNVDSCQGDSGGPLVTSKNNIWWLIGDTSWGSGCAKAYRPGVYGNVMVFTDWIYRQMRADG
B3: the Kd was 0.75 nM with MBP-fused TcsH^2236-2618 and 0.37 nM in experiment [2].

B4: Fc-His-TMPRSS2^ECD [change] (Fc fusion)
chain: WKFMGSKCSNSGIECDSSGTCINPSNWCDGVSHCPGGEDENRCVRLYGPNFILQVYSSQRKSWHPVCQDDWNENYGRAACRDMGYKNNFYSSQGIVDDSGSTSFMKLNTSAGNVDIYKKLYHSDACSSKAVVSLRCIACGVNLNSSRQSQIVGGESALPGAWPWQVSLHVANVHVCGGSIITPEWIVTAAHCVEKPLNNPWHWTAFAGILRQSFMFYGAGYQVEKVISHPNYDSKTKNNDIALMKLQKPLTFNDLVKPVCLPNPGMMLQPEQLCWISGWGATEEKGKTSEVLNAAKVLLIETQRCNSRYVYDNLITPAMICAGFLQGNVDSCQGDSGGPLVTSKNNIWWLIGDTSWGSGCAKAYRPGVYGNVMVFTDWIYRQMRADG
notes: as for B1
Regarding B4, the binding result in experiment [1] is given as “binds”.

B5: Fc-His-TMPRSS2^ECD [change] (Fc fusion)
chain: WKFMGSKCSNSGIECDSSGTCINPSNWCDGVSHCPGGEDENRCVRLYGPNFILQVYSSQRKSWHPVCQDDWNENYGRAACRDMGYKNNFYSSQGIVDDSGSTSFMKLNTSAGNVDIYKKLYHSDACSSKAVVSLRCIACGVNLNSSRQSQIVGGESALPGAWPWQVSLHVQNVHVCGGSIITPEWIVTAAHCVEKPRNNPWHWTAFAGILRQSFMFYGAGYQVEKVISHPNYDSKTKNNDIALMKLQKPLTFNDLVKPVCLPNPGMMLQPEQLCWISGWGATEEKGKTSEVLNAAKVLLIETQRCNSRYVYDNLITPAMICAGFLQGNVDSCQGDSGGPLVTSKNNIWWLIGDTSWGSGCAKAYRPGVYGNVMVFTDWIYRQMRADG
notes: as for B1
Consider B5, for which, in experiment [1], the binding result was “binds”.

B6: Fc-His-TMPRSS2^ECD [change] (Fc fusion)
chain: WKFMGSKCSNSGIECDSSGTCINPSNWCDGVSHCPGGEDENRCVRLYGPNFILQVYSSQRKSWHPVCQDDWNENYGRAACRDMGYKNNFYSSQGIVDDSGSTSFMKLNTSAGNVDIYKKLYHSDACSSKAVVSLRCIACGVNLNSSRQSQIVGGESALPGAWPWQVSLHVQNVHVCGGSIITPEWIVTAAHCVEKPLNNPWHWTAFAGILRQSFMFYGAGYQVEKVISHPNYDSKTKNNDIALMKLQKPLTFNDLVKPVCLPNPGMMLQPEQLCWISGWGATEEKGKTSEVLNAAKVLLIETQRCNSRYVYDNRITPAMICAGFLQGNVDSCQGDSGGPLVTSKNNIWWLIGDTSWGSGCAKAYRPGVYGNVMVFTDWIYRQMRADG
notes: as for B1
B6: in experiment [1], the binding result is recorded as “binds”.

B7: Fc-His-TMPRSS2^ECD [change] (Fc fusion)
chain: WKFMGSKCSNSGIECDSSGTCINPSNWCDGVSHCPGGEDENRCVRLYGPNFILQVYSSQRKSWHPVCQDDWNENYGRAACRDMGYKNNFYSSQGIVDDSGSTSFMKLNTSAGNVDIYKKLYHSDACSSKAVVSLRCIACGVNLNSSRQSQIVGGESALPGAWPWQVSLHVQNVHVCGGSIITPEWIVTAAHCVEKPLNNPWAWTAFAGILRQSFMFYGAGYQVEKVISHPNYDSKTKNNDIALMKLQKPLTFNDLVKPVCLPNPGMMLQPEQLCWISGWGATEEKGKTSEVLNAAKVLLIETQRCNSRYVYDNLITPAMICAGFLQGNVDSCQGDSGGPLVTSKNNIWWLIGDTSWGSGCAKAYRPGVYGNVMVFTDWIYRQMRADG
notes: as for B1
As to B7, the binding result in experiment [1] was “binds”.
